Measurements reported in PMC8564274 (Signal Transduction and Targeted Therapy, 2021).

What was measured:
[1] = target: T1, prefusion-stabilized ectodomain of the SARS-CoV-2 spike (SARS-CoV-2, WH01, stabilised); assay: BLI; details: both partners purified
[2] = target: T1, prefusion-stabilized ectodomain of the …; assay: cell-based or functional assay

B1: n3113.1 (VHH)
VHH: EVQLVESGGGLVQPGGSLRLSCAASDSSFYDYEMSWVRQAPGKAQEWIGSMYPSGRTYINPSLKSLVTISRDNSKNTLYLQLNSLRAEDTAMYYCVSNWASGSTGDYWGQGTLVTVSS
Kd [1]: 63.8 nM
IC50 of neutralisation of SARS-CoV-2 S pseudovirus [2]: 6 µg/mL
